In PMC11830286, “Protein identification using Cryo-EM and artificial intelligence guides improved sample purification” (Journal of Structural Biology: X, 2025):

Target: the molecule itself
Assay: cryo-EM structure; single particle analysis of the SEC peak of the nanoparticle preparation purified without glycine or arginine; octahedral symmetry enforced, 2.51 Å; about 0.3 mg/mL, buffer with DDM

B1: dihydrolipoamide succinyltransferase (DLST) (enzyme, E. coli BL21 (DE3), UniProt P0AFG6 1-405, looked up)
chain: MSSVDILVPDLPESVADATVATWHKKPGDAVVRDEVLVEIETDKVVLEVPASADGILDAVLEDEGTTVTSRQILGRLREGNSAGKETSAKSEEKASTPAQRQQASLEEQNNDALSPAIRRLLAEHNLDASAIKGTGVGGRLTREDVEKHLAKAPAKESAPAAAAPAAQPALAARSEKRVPMTRLRKRVAERLLEAKNSTAMLTTFNEVNMKPIMDLRKQYGEAFEKRHGIRLGFMSFYVKAVVEALKRYPEVNASIDGDDVVYHNYFDVSMAVSTPRGLVTPVLRDVDTLGMADIEKKIKELAVKGRDGKLTVEDLTGGNFTITNGGVFGSLMSTPIINPPQSAILGMHAIKDRPMAVNGQVEILPMMYLALSYDHRLIDGRESVGFLVTIKELLEDPTRLLLDV
notes: dihydrolipoamide succinyltransferase (DLST) of E. coli BL21(DE3), UniProt A0A140NDX4; host protein, no construct; the first 170 residues were unresolved in the cryo-EM map and only the catalytic domain was modelled; also called dihydrolipoyllysine-residue succinyltransferase; contaminant nanoparticle; source: endogenous, E. coli BL21(DE3) expression host; co-purified as a contaminant with …
  stoichiometry N: 24
